According to US20070259824A1 (TOUDAI TLO, published 2007):

Legend:
[1] = target: T1, CD26 in J.CD26 cell lysate (Jurkat T cells with stable expression of CD26) (UniProt P27487 1-766); assay: GST pull-down from J.CD26 lysate, immunoblot with anti-CD26
T1 construct: Whole CD26 from transfected cells, used as lysate in the GST pull-down; also called CD26 transfected Jurkat T cells

[2] = target: T2, CD26 on activated T cells (human, UniProt P27487 1-766); assay: T cell-monocyte conjugates, confocal microscopy
T2 construct: whole, on cells; also called CD26 on T cells

[3] = target: T3, GST-CD26 D1 (residues 507-766) (UniProt P27487 507-766); assay: GST pull-down from THP-1 lysate, immunoblot with anti-caveolin-1
T3 construct: Produced in COS-7 cells, on GSH beads; not shown: GST of mammalian vector pEBG

[4] = target: T4, GST-CD26 D2 (residues 267-584) (UniProt P27487 267-584); assay: as above
T4 construct: range 267-584; Produced in COS-7 cells, on GSH beads; not shown: GST of mammalian vector pEBG

[5] = target: endogenous Tollip (THP-1 cells, monocytes) (human, UniProt Q9H0E2 2-274); assay: immunoprecipitation with anti-caveolin-1 pAb from TT-loaded monocytes, immunoblot with anti-Tollip
[6] = target: MyD88 (in TT-loaded monocytes) (human, UniProt Q99836 1-296); assay: immunoprecipitation with anti-caveolin-1 pAb from TT-loaded monocytes
[7] = target: T5, IRAK-4 (in TT-loaded monocytes) (human, UniProt Q9NWZ3 1-460); assay: as above
T5 sequence: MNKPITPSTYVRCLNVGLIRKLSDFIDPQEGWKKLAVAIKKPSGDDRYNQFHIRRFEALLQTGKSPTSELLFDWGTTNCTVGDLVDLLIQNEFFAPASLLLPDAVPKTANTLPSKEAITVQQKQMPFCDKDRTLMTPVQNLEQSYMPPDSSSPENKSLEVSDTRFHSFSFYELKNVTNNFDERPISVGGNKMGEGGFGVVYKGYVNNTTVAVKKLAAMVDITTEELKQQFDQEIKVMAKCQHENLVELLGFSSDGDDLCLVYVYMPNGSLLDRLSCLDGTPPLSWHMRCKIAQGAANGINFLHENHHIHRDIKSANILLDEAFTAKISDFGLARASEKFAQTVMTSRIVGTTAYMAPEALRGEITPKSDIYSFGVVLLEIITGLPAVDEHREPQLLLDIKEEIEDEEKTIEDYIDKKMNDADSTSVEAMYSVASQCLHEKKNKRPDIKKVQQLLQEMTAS

[8] = target: T6, recombinant soluble CD26 (rsCD26 wt) (UniProt P27487 29-766, limits assumed); assay: confocal microscopy of transfected HEK293 cells
T6 construct: extracellular domain; Used free, conjugated with Texas red, or coated on latex beads; also called sCD26-TR; CD26-TR

[9] = target: T7, GFP-fused wild type CD26 (CD26 wt-GFP) on transfected HEK293 cells (UniProt P27487 1-766); assay: confocal microscopy of transfected HEK293 cells
T7 construct: also called CD26-EGFP; GFP-CD26 wt; not shown: EGFP of vector pEB6-CAG-EGFP (engineered variant of Aequorea victoria GFP)

[10] = target: T8, CD26 S630A-GFP on transfected HEK293 cells (UniProt P27487 1-766); assay: confocal microscopy of transfected HEK293 cells
T8 construct: also called DPPIV activity-deleted mutant (S630A); not shown: EGFP of vector pEB6-CAG-EGFP
T8 sequence (P27487 whole entry S630A): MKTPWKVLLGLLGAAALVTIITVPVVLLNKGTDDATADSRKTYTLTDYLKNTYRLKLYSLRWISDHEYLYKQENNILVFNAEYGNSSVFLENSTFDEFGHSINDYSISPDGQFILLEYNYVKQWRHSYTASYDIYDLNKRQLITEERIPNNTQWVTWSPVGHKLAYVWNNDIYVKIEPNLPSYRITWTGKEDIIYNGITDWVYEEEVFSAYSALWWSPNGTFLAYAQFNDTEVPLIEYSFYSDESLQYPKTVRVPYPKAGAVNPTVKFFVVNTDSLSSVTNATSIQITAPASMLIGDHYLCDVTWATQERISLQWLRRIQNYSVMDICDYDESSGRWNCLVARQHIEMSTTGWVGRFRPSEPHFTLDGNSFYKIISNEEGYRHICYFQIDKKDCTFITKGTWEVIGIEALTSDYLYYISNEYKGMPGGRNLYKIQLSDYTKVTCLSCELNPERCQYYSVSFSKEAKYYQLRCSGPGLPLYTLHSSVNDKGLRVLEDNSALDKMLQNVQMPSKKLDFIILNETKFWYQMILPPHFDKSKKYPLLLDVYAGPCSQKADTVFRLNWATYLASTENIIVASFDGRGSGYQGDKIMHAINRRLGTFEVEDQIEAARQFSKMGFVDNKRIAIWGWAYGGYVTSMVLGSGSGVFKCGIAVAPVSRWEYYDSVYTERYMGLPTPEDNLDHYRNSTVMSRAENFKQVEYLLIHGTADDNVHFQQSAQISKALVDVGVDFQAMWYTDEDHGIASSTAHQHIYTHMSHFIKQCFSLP

T1 sequence (P27487 whole entry): as the sequence (P27487 whole entry S630A) above, with A630S counted along it
Chain of MyD88 (in TT-loaded monocytes) (Q99836 whole entry): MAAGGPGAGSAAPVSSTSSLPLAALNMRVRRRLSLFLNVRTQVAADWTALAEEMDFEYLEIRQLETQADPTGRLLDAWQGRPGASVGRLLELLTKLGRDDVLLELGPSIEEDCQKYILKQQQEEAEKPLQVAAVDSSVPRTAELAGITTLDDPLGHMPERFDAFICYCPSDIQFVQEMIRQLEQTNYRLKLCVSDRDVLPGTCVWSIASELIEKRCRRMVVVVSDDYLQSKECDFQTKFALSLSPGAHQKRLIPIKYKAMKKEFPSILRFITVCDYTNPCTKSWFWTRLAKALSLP
T6 sequence (P27487 29-766 limits assumed): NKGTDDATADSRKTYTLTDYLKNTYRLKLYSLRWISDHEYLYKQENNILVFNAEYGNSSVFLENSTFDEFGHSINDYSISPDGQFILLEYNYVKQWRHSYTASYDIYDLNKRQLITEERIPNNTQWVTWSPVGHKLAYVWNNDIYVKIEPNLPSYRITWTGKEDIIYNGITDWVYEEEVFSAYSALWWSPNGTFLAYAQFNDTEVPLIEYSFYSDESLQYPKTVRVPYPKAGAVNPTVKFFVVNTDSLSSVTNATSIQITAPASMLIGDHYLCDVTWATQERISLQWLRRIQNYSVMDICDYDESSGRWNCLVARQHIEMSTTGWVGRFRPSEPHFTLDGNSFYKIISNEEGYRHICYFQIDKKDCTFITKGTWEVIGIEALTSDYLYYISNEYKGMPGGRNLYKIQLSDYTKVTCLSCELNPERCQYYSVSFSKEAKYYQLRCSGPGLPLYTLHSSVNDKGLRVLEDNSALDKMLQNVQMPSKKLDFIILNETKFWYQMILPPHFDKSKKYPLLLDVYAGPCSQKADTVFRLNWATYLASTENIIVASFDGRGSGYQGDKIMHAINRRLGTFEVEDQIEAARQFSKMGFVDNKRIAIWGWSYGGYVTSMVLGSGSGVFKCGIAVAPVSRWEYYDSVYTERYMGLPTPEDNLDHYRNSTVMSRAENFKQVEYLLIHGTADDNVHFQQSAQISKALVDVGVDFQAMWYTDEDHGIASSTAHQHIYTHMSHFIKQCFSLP
T3 sequence (P27487 507-766): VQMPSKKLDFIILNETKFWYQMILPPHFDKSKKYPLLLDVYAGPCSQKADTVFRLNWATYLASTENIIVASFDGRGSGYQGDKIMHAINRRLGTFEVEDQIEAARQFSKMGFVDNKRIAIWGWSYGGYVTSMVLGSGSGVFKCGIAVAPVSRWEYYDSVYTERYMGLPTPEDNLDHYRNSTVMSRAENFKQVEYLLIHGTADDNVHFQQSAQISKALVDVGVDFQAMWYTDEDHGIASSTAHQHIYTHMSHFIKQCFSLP
T4 sequence (P27487 267-584): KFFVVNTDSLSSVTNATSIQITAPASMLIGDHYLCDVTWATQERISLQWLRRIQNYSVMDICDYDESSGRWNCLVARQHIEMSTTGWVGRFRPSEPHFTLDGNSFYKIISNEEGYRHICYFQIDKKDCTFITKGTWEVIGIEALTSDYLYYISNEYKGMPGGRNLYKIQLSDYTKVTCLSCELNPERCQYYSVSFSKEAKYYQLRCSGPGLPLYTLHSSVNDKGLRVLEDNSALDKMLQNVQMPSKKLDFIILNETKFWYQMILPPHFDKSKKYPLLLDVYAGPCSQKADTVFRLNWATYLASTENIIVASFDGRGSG
T2 sequence (P27487 whole entry): as the sequence (P27487 whole entry S630A) above, with A630S counted along it
T7 sequence (P27487 whole entry, the tested form may be a part): as the sequence (P27487 whole entry S630A) above, with A630S counted along it

B1: GST-Cav-1 (1-82) (other, UniProt Q03135 1-82, looked up)
chain: MSGGKYVDSEGHLYTVPIREQGNIYKPNNKAMADELSEKQVYDAHTKEIDLVNRDPKHLNDDVVKIDFEDVIAEPEGTHSFD
notes: range 1-82; not shown: GST of vector pGEX6p1
- binding result [1]: no binding

B2: GST-Cav-1 (102-178) (other, UniProt Q03135 102-178, looked up)
chain: LLSALFGIPMALIWGIYFAILSFLHIWAVVPCIKSFLIEIQCISRVYSIYVHTVCDPLFEAVGKIFSNVRINLQKEI
notes: range 102-178; not shown: GST of vector pGEX6p1
- binding result [1]: no binding

B3: caveolin-1 on the cell surface of TT-loaded monocytes (other)
chain: SGGKYVDSEGHLYTVPIREQGNIYKPNNKAMADELSEKQVYDAHTKEIDLVNRDPKHLNDDVVKIDFEDVIAEPEGTHSFDGIWKASFTTFTVTKYWFYRLLSALFGIPMALIWGIYFAILSFLHIWAVVPCIKSFLIEIQCISRVYSIYVHTVCDPLFEAVGKIFSNVRINLQKEI
notes: whole, on cells
- binding result [2]: binds

B4: endogenous caveolin-1 (THP-1 cell lysate, monocyte lysate) (other, human, UniProt Q03135 2-178, looked up)
chain: B3 chain
notes: Endogenous whole protein from cell lysates
- binding result [3]: no binding
- binding result [4]: no binding
- binding result [5]: binds
- binding result [6]: no binding
- binding result [7]: no binding

B5: GFP-fused full-length caveolin-1 (caveolin-1-GFP) in transfected cells (other, UniProt Q03135 1-178, looked up)
chain: MSGGKYVDSEGHLYTVPIREQGNIYKPNNKAMADELSEKQVYDAHTKEIDLVNRDPKHLNDDVVKIDFEDVIAEPEGTHSFDGIWKASFTTFTVTKYWFYRLLSALFGIPMALIWGIYFAILSFLHIWAVVPCIKSFLIEIQCISRVYSIYVHTVCDPLFEAVGKIFSNVRINLQKEI
notes: Expressed in HEK293 cells (with sCD26-TR) or stably in THP-1 cells (with Tollip); also called caveolin-1-EGFP; GFP-caveolin-1; not shown: EGFP of vector pEB6-CAG-EGFP
- binding result [8]: binds

B6: Texas red conjugated caveolin-1 (cav-TR) (other, UniProt Q03135 1-178, looked up)
chain: B5 chain
modifications: Texas red conjugated
notes: range 1-178; also called caveolin-1 wt recombinant protein
- binding result [9]: binds
- binding result [10]: no binding
